Measurements published in article PMC9593262 (iScience, 2022).
No end group written: not given here. *: point of attachment. Biotin = O=C1N[C@H]2[C@H](CS[C@H]2CCCCC(=O)*)N1

Columns and labels:
[1] = molecular target: T1, Recombinant mouse NRP-1 protein (mouse, UniProt P97333 22-856); assay: plate binding assay read by fluorescence of PE-labelled streptavidin
T1 sequence (looked up): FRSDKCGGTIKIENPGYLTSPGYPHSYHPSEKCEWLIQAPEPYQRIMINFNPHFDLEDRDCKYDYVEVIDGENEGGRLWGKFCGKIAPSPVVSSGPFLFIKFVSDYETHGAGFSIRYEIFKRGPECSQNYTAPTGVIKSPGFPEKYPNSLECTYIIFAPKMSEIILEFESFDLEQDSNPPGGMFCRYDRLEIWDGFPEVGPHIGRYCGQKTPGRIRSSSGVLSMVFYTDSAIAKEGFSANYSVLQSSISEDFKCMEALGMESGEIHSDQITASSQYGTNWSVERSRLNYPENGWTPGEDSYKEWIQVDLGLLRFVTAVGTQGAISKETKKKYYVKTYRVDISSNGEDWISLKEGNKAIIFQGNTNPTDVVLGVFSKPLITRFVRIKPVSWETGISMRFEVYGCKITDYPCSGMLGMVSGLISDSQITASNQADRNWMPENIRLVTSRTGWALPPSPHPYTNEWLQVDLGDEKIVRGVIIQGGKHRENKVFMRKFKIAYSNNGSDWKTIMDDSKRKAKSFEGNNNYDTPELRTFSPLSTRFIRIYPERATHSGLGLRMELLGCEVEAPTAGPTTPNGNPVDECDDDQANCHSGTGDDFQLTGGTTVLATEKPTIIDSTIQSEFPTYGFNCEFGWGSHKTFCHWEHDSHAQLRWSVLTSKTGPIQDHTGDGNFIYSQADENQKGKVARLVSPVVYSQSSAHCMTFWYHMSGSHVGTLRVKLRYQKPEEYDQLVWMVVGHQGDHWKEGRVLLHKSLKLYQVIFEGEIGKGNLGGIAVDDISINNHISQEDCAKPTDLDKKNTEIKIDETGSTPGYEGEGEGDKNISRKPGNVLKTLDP

[2] = molecular target: T2, Recombinant nucleolin protein (murine, residues 309–644) (mouse, UniProt P09405 309-644); assay: as above
T2 sequence (P09405 309-644): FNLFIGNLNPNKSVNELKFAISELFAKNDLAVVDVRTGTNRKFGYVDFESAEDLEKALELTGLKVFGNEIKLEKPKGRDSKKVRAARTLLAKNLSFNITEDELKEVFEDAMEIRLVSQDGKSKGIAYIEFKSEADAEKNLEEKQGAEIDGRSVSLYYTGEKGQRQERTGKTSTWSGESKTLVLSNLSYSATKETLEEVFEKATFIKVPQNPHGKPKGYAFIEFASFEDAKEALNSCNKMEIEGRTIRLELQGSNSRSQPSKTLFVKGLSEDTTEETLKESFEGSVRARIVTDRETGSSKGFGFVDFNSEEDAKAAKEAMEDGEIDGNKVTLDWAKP

[3] = molecular target: T2, Recombinant nucleolin protein (murine, …); assay: plate competition assay read by fluorescence of PE-labelled streptavidin

Question: Does Biotin-VSYKAIR [biotin-labeled DC-targeting peptide Dp1] bind [1]?
Answer: binds

Question: Does Biotin-VSYKAIRVSYKAIRVSYKAIR [biotin-labeled Dp1×3] bind [2]?
Answer: binds

Question: Does VSYKAIRVSYKAIRVSYKAIR [Dp1×3 (unlabelled)] bind [3]?
Answer: binds
